In paper PMC7641913 one finds binding data, which are given here for one sequence.

The target in the data set is T1, His-Fur (Vibrio cholerae C7258 (El Tor; Peru, 1991)) (UniProt P0C6C8).
T1 sequence: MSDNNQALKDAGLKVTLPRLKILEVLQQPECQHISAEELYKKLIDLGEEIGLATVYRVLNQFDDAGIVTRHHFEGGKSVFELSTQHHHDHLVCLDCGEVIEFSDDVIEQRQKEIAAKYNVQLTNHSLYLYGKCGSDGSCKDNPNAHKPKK
Kind of data set: EMSA. The following applies: 10 mM Tris-HCl pH 7.5, 50 mM KCl, 1 mM MgCl2, 100 uM MnCl (so in the source), 0.5 mM DTT, 0.05 mg/ml BSA, 10 mg/ml salmon sperm DNA; room temperature, 20 min (EMSA …).

Turning to “CACTTCTTCGCCTTCTTTGATTGCGCCAGTACGGCGAATATCCAAACGAACAGAAGCGTAGAATTTCAGTGCGTTACCGCCAGTGGTGGTTTCTGGGTTACCAAACATCACACCAATCTT (double strand) [recA fragment (negative control)]”, the binding entry was “no binding”.
